In US20220175781A1, “CD40L COMPOSITIONS AND METHODS FOR TUNABLE REGULATION” (Obsidian Therapeutics, Inc., priority 2019, published 2022):
“And” between values parts separate entries of the source, which are not always exact repeats. Identical values can stand only once.

Assays:
HEK-Blue™ CD40 cells = assay: HEK-Blue CD40 SEAP reporter co-culture with transduced Jurkat cells; format: cell-based; details: ligand 24 h (1 μM Shield-1, 50 μM TMP or 1 μM Bazedoxifene), recombinant soluble CD40L as standard
Procedure: Jurkat cells transduced with OT-001661, OT-001685, OT-001662, OT-001666, or OT-001667 were co-cultured with HEK-Blue™ CD40 cells (Invivogen, San Diego, Calif.). Cocultures were treated with ligands (1 μM Shield-1, 50 μM TMP, 1 μM Bazedoxifene (BZD) or vehicle control) for 24 hours and the secreted embryonic alkaline phosphatase (SEAP) reporter levels were measured in the media. All vehicle treated samples had background SEAP activity. Recombinant soluble CD40L was used as the standard in the experiments.

T cells [1] = assay: Dose response of TMP, Bazedoxifene or Raloxifene, % CD40L positive T cells; format: cell-based; details: T cells
Procedure: T cells were transduced with OT-001662 or OT-001666. On day 4, cells were treated with increasing doses of TMP for T cells expressing OT-001662. Cells expressing OT-001666 were treated either with increasing concentrations of Bazedoxifene or Raloxifene. The data are shown in Table 30 as the percentage of CD40L positive T cells.

CD8+ T cells = assay: Ligand dose response, % CD40L positive cells, CD8+ T cells; format: cell-based
Procedure: (§1) Ligand dose response curve experiments were performed with increasing doses of ligand using OT-001662 and OT-001666 constructs in both CD4+ as well as CD8+ T cells.
(§2) The experiments were conducted using three different volumes of virus for transduction i.e. 0.5, 2 and 10 μL.

Jurkat cells = assay: Surface expression of CD40L by FACS in lentivirally transduced Jurkat cells; format: cell-based; details: for CD40L positive percent of live cells / Geometric Mean of CD40L fluorescent intensity: FACS
Procedure: 50,000 Jurkat cells were transduced with lentiviruses corresponding to the constructs. OT-001661, OT-001685, OT-001662, or OT-001666 and cultured for 48h. Cells were split and incubated with ligands for 24h before analysis by flow cytometry.
Jurkat cells were treated with one of the following: 1 μM Shield-1, 50 μM TMP, 1 μM Bazedoxifene (BZD) or vehicle control. Surface expression of CD40L was measured using FACS and the results are show in Table 9. All values were normalized to mode.

CD4+ T cells = assay: Ligand dose response, % CD40L positive cells, CD4+ T cells; format: cell-based
Procedure: as §1, §2

[2] = system: T cells (CD4 and CD8 positive); assay: CD40L MFI in vitro in CD4 and CD8 positive T cells, 10 μM TMP; format: cell-based; details: constitutive, ligand not given
Procedure: T cells were transduced with OT-001662 and then treated with 10 μM TMP on day 4. CD40L expression was analyzed by FACS both in the CD4 and CD8 positive T cell populations.

T cells [3] = assay: % CD40L positive cells in vivo, transduced T cells in NSG mice dosed with TMP; parameters: species or system NSG female mice; details: constitutive construct
Procedure: Based on the in vitro data, regulatability of CD40L constructs in vivo was tested. 10-week old NSG female mice were injected with T cells transduced with one of the following constructs empty vector, OT-001661, and OT-001662 (day 0). On day 1, mice were pre-bled prior to dose with ligand. On day 2, mice were dosed every 4 hours with TMP at 500 mg/kg body weight of the mouse or vehicle control. Two hours after every dose, blood was collected from the mice to measure CD40L levels. On day 3, i.e. 24 hours after the first dose, mice were terminally bled for analysis. The values in bold represent the average values for each bleed.

[4] = ligand 24 h (1 μM Shield-1 OT-001685, 50 μM TMP OT-001662, 1 μM Bazedoxifene OT-001666)
[5] = vehicle 24 h (Ethanol 0.2% OT-001685, DMSO 0.5% OT-001662, DMSO 0.01% OT-001666)
[6] = constitutive construct, no DRD, no ligand

B1: OT-001666 (Met; ER (305-549 of WT, L384M, N413D, M421G, G521R, Y537S); Histidine; CD40L; stop) (ligand)
chain: MSLALSLTADQMVSALLDAEPPILYSEYDPTRPFSEASMMGLLTNLADRELVHMINWAKRVPGFVDLTLHDQVHLLECAWMEILMIGLVWRSMEHPGKLLFAPNLLLDRDQGKCVEGGVEIFDMLLATSSRFRMMNLQGEEFVCLKSIILLNSGVYTFLSSTLKSLEEKDHIHRVLDKITDTLIHLMAKAGLTLQQQHQRLAQLLLILSHIRHMSNKRMEHLYSMKCKNVVPLSDLLLEMLDAHRLHMIETYNQTSPRSAATGLPISMKIFMYLLTVFLITQMIGSALFAVYLHRRLDKIEDERNLHEDFVFMKTIQRCNTGERSLSLLNCEEIKSQFEGFVKDIMLNKEETKKENSFEMQKGDQNPQIAAHVISEASSKTTSVLQWAEKGYYTMSNNLVTLENGKQLTVKRQGLYYIYAQVTFCSNREASSQAPFIASLCLKSPGRFERILLRAANTHSSAKPCGQQSIHLGGVFELQPGASVFVNVTDPSQVSHGTGFTSFGLLKL
- Soluble CD40L (HEK-Blue™ CD40 cells): 1824.7 pg/mL
- % CD40L positive T cells, dose response (T cells [1]; increasing concentrations of Bazedoxifene): dose dependent increase
- Raloxifene dependent expression (T cells [1]; increasing concentrations of Raloxifene): observed only at the 1 μM dose
- % CD40L positive cells (CD8+ T cells; 2 μL virus, BZD 0.05 nM): 0.69%
- % CD40L positive cells (CD8+ T cells; 2 μL virus, BZD 0.5 nM): 0.52%
- % CD40L positive cells (CD8+ T cells; 2 μL virus, BZD 5 nM): 0.71%
- % CD40L positive cells (CD8+ T cells; 2 μL virus, BZD 50 nM): 3.32%
- % CD40L positive cells (CD8+ T cells; 2 μL virus, BZD 500 nM): 60%
- % CD40L positive cells (CD8+ T cells; 10 μL virus, BZD 0.05 nM): 0.5%
- % CD40L positive cells (CD8+ T cells; 10 μL virus, BZD 0.5 nM): 0.2%
- % CD40L positive cells (CD8+ T cells; 10 μL virus, BZD 5 nM): 0.23%
- % CD40L positive cells (CD8+ T cells; 10 μL virus, BZD 50 nM): 17.7%
- % CD40L positive cells (CD8+ T cells; 10 μL virus, BZD 500 nM): 68.5%
- CD40L positive percent of live cells (Jurkat cells; [4]): 38.4%
- Geometric Mean of CD40L fluorescent intensity (Jurkat cells; [4]): 421
- CD40L positive percent of live cells (Jurkat cells; [5]): 0.024%
- Geometric Mean of CD40L fluorescent intensity (Jurkat cells; [5]): 21.5
- % CD40L positive cells (CD4+ T cells; 2 μL virus, BZD 0.05 nM): 8.57%
- % CD40L positive cells (CD4+ T cells; 2 μL virus, BZD 0.5 nM): 9.25%
- % CD40L positive cells (CD4+ T cells; 2 μL virus, BZD 5 nM): 11.1%
- % CD40L positive cells (CD4+ T cells; 2 μL virus, BZD 50 nM): 36%
- % CD40L positive cells (CD4+ T cells; 2 μL virus, BZD 500 nM): 71.8%
- % CD40L positive cells (CD4+ T cells; 10 μL virus, BZD 0.05 nM): 4.16%
- % CD40L positive cells (CD4+ T cells; 10 μL virus, BZD 0.5 nM): 4.86%
- % CD40L positive cells (CD4+ T cells; 10 μL virus, BZD 5 nM): 6.42%
- % CD40L positive cells (CD4+ T cells; 10 μL virus, BZD 50 nM): 34%
- % CD40L positive cells (CD4+ T cells; 10 μL virus, BZD 500 nM): 76.5%

B2: OT-001661: constitutively expressed full length CD40L construct (protein)
chain: MHMIETYNQTSPRSAATGLPISMKIFMYLLTVFLITQMIGSALFAVYLHRRLDKIEDERNLHEDFVFMKTIQRCNTGERSLSLLNCEEIKSQFEGFVKDIMLNKEETKKENSFEMQKGDQNPQIAAHVISEASSKTTSVLQWAEKGYYTMSNNLVTLENGKQLTVKRQGLYYIYAQVTFCSNREASSQAPFIASLCLKSPGRFERILLRAANTHSSAKPCGQQSIHLGGVFELQPGASVFVNVTDPSQVSHGTGFTSFGLLKL
- CD40L MFI in vitro ([2]; CD4+): 24489
- CD40L MFI in vitro ([2]; CD8+): 14352
- % CD40L positive cells in vivo (T cells [3]; 0 hours, average): 90.1%
- % CD40L positive cells in vivo (T cells [3]; 0 hours, individual values): 80.9% and 87.1% and 84.4% and 107.8%
- % CD40L positive cells in vivo (T cells [3]; 2 hours, average): 62.3%
- % CD40L positive cells in vivo (T cells [3]; 2 hours, individual values): 85.6% and 67.4% and 33.3% and 62.7%
- % CD40L positive cells in vivo (T cells [3]; 24 hours, average): 55.8%
- % CD40L positive cells in vivo (T cells [3]; 24 hours, individual values): 53.5% and 66.7% and 61.0% and 41.9%
- Soluble CD40L (HEK-Blue™ CD40 cells): 9341.40 pg/mL
- CD40L positive percent of live cells (Jurkat cells; [6]): 99.4%
- Geometric Mean of CD40L fluorescent intensity (Jurkat cells; [6]): 10075
- CD40L expression relative to untransduced cells (Jurkat cells; constitutive construct): higher than untransduced cells
